Common to all, as to assay: SPR (Biacore), antibody captured on chip, FcgR extracellular domain as analyte
In assay [1] the target is T1, FcgRIIIa F (human, UniProt P08637 17-208).
T1 construct: extracellular domain; also called FcγRIIIa F; not shown: His tag attached to the C terminus

The target in assay [2] is T2, FcgRIIb (human, UniProt P31994 43-217).
T2 construct: extracellular domain; Expressed in FreeStyle293 cells and purified; used as analyte in Biacore; also called FcγRIIb; CD32B; not shown: His tag attached to the C terminus
T2 sequence (looked up): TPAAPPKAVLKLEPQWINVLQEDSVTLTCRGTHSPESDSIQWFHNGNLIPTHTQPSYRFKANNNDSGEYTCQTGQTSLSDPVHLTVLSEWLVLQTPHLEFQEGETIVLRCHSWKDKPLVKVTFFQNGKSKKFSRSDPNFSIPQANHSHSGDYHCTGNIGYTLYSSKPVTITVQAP

Assay [3] has as its target T3, FcgRIIa R (human, UniProt P12318 34-217).
T3 construct: extracellular domain; also called FcγRIIa R; FcγRIIa type R; not shown: His tag attached to the C terminus
T3 sequence (looked up): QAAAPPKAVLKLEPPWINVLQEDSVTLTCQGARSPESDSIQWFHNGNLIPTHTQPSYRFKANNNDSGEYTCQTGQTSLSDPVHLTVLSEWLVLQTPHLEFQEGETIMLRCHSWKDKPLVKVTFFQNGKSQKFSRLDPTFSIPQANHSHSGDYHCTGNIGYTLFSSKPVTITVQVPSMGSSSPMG

Assay [4] deals with T1, FcgRIIIa F. This is another data set of the same source.
Assay [5] concerns the target T2, FcgRIIb. This is another data set of the same source.
For assay [6], the target named is T4, FcgRIIIa V (human, UniProt P08637 17-208).
T4 construct: extracellular domain; also called FcγRIIIa V; not shown: His tag attached to the C terminus

Assay [7] concerns the target T5, FcgRIa (human, UniProt P12314 16-292).
T5 construct: extracellular domain; Expressed in FreeStyle293 cells and purified; used as analyte in Biacore; also called FcγRIa; FcγRI; not shown: His tag attached to the C terminus

Assay [8] deals with T3, FcgRIIa R. The source holds these as a separate data set.
For assay [9], the target named is T6, FcgRIIa H (human, UniProt P12318 34-217).
T6 construct: extracellular domain; also called FcγRIIa H; FcγRIIa type H; not shown: His tag attached to the C terminus
T6 sequence (looked up): T3 sequence (looked up) with R134H

For assay [10], the target named is T1, FcgRIIIa F. The source holds these as a separate data set.
For assay [11], the target named is T2, FcgRIIb. This is another data set of the same source.
For assay [12], the target named is T4, FcgRIIIa V. The source holds these as a separate data set.
Assay [13] addresses T5, FcgRIa. This is another data set of the same source.
The target in assay [14] is T3, FcgRIIa R. This is another data set of the same source.
Assay [15] has as its target T6, FcgRIIa H. This is another data set of the same source.

Where a chain is given by its changes, count along the chain named. Like-named read-outs stand apart in the source and are kept apart here.

T1 sequence (P08637 17-208): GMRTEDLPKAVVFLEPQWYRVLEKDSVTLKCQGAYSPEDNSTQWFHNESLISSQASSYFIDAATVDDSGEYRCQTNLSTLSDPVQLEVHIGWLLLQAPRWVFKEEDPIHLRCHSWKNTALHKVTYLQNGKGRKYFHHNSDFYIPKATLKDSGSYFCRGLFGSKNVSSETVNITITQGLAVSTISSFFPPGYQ
T5 sequence (P12314 16-292): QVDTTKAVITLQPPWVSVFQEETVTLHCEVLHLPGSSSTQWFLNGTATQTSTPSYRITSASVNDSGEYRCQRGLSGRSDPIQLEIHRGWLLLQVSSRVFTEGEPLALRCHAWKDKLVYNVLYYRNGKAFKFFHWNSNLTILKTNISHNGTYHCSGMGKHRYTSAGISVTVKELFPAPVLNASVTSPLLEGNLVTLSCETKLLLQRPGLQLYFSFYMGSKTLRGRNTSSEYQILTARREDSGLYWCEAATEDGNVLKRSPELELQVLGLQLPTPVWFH
T4 sequence (P08637 17-208 F176V limits assumed): as the sequence (P08637 17-208) above, with F160V counted along it

B1: H240-afucosyl_G1d/L73-k0 (antibody, human IgG1, kappa)
heavy: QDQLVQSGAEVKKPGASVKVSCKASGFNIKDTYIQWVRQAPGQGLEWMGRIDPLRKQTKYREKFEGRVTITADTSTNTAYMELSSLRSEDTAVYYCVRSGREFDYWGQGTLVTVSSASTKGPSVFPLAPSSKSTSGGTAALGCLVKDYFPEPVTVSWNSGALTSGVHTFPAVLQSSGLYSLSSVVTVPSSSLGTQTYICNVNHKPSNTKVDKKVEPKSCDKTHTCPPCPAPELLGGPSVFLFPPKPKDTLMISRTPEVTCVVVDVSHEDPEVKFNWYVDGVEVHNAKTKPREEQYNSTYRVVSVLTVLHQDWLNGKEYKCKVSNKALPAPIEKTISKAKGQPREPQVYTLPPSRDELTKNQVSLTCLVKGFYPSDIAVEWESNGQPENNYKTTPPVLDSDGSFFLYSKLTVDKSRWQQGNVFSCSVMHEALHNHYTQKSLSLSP
light: DIQMTQSPSSLSASVGDRVTITCRASQDIHKYIAWYQQKPGQAPRLLIQYTSTLQPGVPSRFSGSGSGTDYTFTISSLQPEDIATYYCLQYEQLRTFGGGTKVEIKRTVAAPSVFIFPPSDEQLKSGTASVVCLLNNFYPREAKVQWKVDNALQSGNSQESVTEQDSKDSTYSLSSTLTLSKADYEKHKVYACEVTHQGLSSPVTKSFNRGEC
modifications: fucose removed from the sugar chain (afucosylated); amino acid sequence same as H240-G1d
notes: Anti-EREG IgG1 obtained by afucosylating H240-G1d/L73-k0; also called afucosylated antibody
For B1, the equilibrium dissociation constant (Kd) in [1] is 79 nM; in assay [2] it was 2600 nM; in [3], 490 nM; in assay [4], 79 nM; in [5] it was 2600 nM; in assay [6] it was 6.9 nM. Also, the Kd in assay [7] stood at 0.43 nM; in assay [8], 490 nM; in assay [9] it was 780 nM; in assay [10], 79 nM; in [11] it was 2600 nM; in [12], 6.9 nM. Besides, the Kd in assay [13] stood at 0.43 nM; in assay [14], 490 nM; in assay [15], 780 nM.

The values are drawn from patent US20180155451A1 (published 2018).
